# Measured values reported in patent publication US20240190987A1, “Engineered EpCam Binding Antibodies” (TigaTX, priority 2021, published 2024).
# Changes are numbered by the printed parent chain. Numbers in names are those of the source. Entries after “also recorded” stand apart in the source; their conditions may differ.
# B1: Ab1071: LS2B R5M2 Fab (antibody, V domains shown)
# VH: EVQLVESGGGLVQPGGSLRLSCAASGFDFSSYSIHWVRQAPGKGLEWVASISPYYGSTYYADSVKGRFTISADTSKNTAYLQMNSLRAEDTAVYYCARYYEWYKYDLYAGSLGFDYWGQGTLVTVSS
# VL: DIQMTQSPSSLSASVGDRVTITCRASQSVSSAVAWYQQKPGKAPKLLIYSASSLYSGVPSRFSGSRSGTDFTLTISSLQPEDFATYYCQQGGYSLITFGQGTKVEIK
# B2: Ab1072: LS2B R7M1 Fab (antibody, V domains shown)
# VH: B1 VH with S50A
# VL: B1 VL
# B3: Ab1073: LS2B R7M2 Fab (antibody, V domains shown)
# VH: B1 VH with S50A, W102Y
# VL: B1 VL
# B4: Ab0223: LS2A humanized parent (antibody, V domains shown)
# VH: QVQLVQSGAEVKKPGASVKVSCKASGYTFTSYWMHWVRQAPGQGLEWMGIIHPNSGGTSYAQKFQGRVTMTRDTSTSTVYMELSSLRSEDTAVYYCAMGDYVSRDYWGQGTLVTVSS
# VL: EIVLTQSPGTLSLSPGERATLSCRASSSVSSSYLHWYQQKPGQAPRLLIYSTSSRATGIPDRFSGSGSGTDFTLTISRLEPEDFAVYYCQQYSGYLFTFGQGTKLEIK
# B5: Ab1044: LS2B; HC: S50A on Ab0902 (antibody, V domains shown)
# VH: B1 VH with S50A
# VL: B1 VL
# B6: Ab1045: LS2B; HC: S50A+W98Y on Ab0902 (antibody, V domains shown)
# VH: B1 VH with S50A, W102Y
# VL: B1 VL
# B7: Ab0899: humanized LS2A R3M1 (protein)
# scFv: QVQLVQSGAEVKKPGASVKVSCKASGYTFTSYWMHWVRQHPGQGLEWMGMIHPNSGGTNYAQKFQGRVTMTRDTSTSTVYMELSSLRSEDTAVYYCAMGDYVSRDYWGQGTLVTVSSGGGGSGGGGSGGGGSEIVLTQSPGTLSLSPGERATLSCRASSSVSSSYLHWYQQKPGQAPRLLIYSTSSRATGIPDRFSGSGSGTDFTLTISRLEPEDFAVYYCQQYSGYQFTFGQGTKLEIK
# modifications: left off: a dimerising Fc or GST; small tags and cut ends
# notes: humanized LS2A R3M1
# Tests used:
# [1] = tested on: LS2A R3M1 (Ab0786); assay: BLI binding of LS2B variants to LS2A R3M1 (Ab0786) with indinavir; settings: for binding to LS2A clones (FIG. 17): biotinylated Ab0785 (R2M34) or Ab0786 (R3M1) captured, indinavir present; for Kd: five-point kinetics, values equal Table 15 column LS2A Ab0786
# Experimental: Binding kinetics were measured by biolayer interferometry (BLI). Biotinylated-Ab0785 (LS2A R2M34 Fab) or biotinylated-Ab0786 (LS2A R3M1 Fab) was captured by streptavidin biosensors and binding to Ab1071 (LS2B R5M2 Fab), Ab1072 (LS2B R7M1 Fab), and Ab1073 (LS2B R7M2 Fab) was measured in the presence of […].
# In R6 of engineering, alanine scanning of clone R4M16 were performed to find improved binding to LS2A R3M2 (Ab0787) and LS2A R3M1 (Ab0786). Variants were screened for binding to LS2A (Ab0223) and LS2A R3M2 (Ab0787) with a single-point kinetic screen.
# In R7, combination mutants from R6 were designed to generate further affinity variants. Variants were screened for binding to LS2A Ab0787 and Ab0786 with a single-point kinetic screen. Five-point kinetics was measured for a subset of molecules.
# (§1) Bio-layer interferometry (BLI) data were measured using an Octet RED384 (ForteBio) instrument. Antigens of interest were immobilized on an AHC biosensor and loaded until a 0.4-0.6-nm signal was achieved. Purified antibodies were used as the analyte premixed with 10 μM Indinavir or 0.05% DMSO vehicle. PBSTB (PBS, pH 7.4, 0.05% Tween-20, 0.2% BSA) was used for all buffers for BLI. Data were analyzed using ForteBio Octet analysis software and kinetic parameters were determined using a 1:1 monovalent binding model.
# [2] = tested on: Ag0067 (LS2A R2M9); assay: BLI LITE Switch indinavir washout/reversibility kinetics; assay type: binding
# Experimental: Binding was measured by biolayer interferometry (BLI). Biotinylated-Ag0067 (LS2A R2M9) was captured on streptavidin biosensors. Binding of 50 nM Ab1073 (LS2B R7M2) to Ag0067 was allowed to reach steady-state in the presence of 1 μM IDV. Complex dissociation was subsequently performed for 2 hours in buffer containing (1) 50 nM Ab1073 and 1 μM IDV, (2) 50 nM Ab1073 and vehicle (washout), and (3) vehicle only. […] In 2 hours of IDV washout, the LITE Switch dissociated to nearly 0% complex, whereas complete complex dissociation was observed within 10 min upon removal of both Ab1073 and IDV.
# LITE Switch indinivir (IDV) washout/reversibility kinetics (FIG. 21) were measured by biolayer interferometry (BLI) on an Octet® Qke (Sartorius) instrument. Biotinylated scFv-Fc Ag67, in the presence of 1 μM IDV or 0.05% DMSO vehicle, was immobilized on streptavidin biosensors and loaded to a signal of 1.2-1.8 nm. After loading, biosensors were blocked with 10 μM biotin containing 1 μM IDV or vehicle. […] Data were analyzed using ForteBio Data Analysis HT software version 12.0.2.59. Dissociation constants were determined using a 1:1 monovalent binding model, local fitting, and with dissociation baseline to zero. Data were additionally analyzed using GraphPad Prism 9 software version 9.1.2 (225) with a one-phase exponential decay nonlinear regression model. […]
# [3] = molecular target: Ab0902 (LS2B R5M2); assay: BLI indinavir-dependent binding of LS2A Ab0223 to LS2B Ab0902
# Experimental: Binding was measured by biolayer interferometry (BLI). Ab0902 (LS2B R5M2) was captured by anti-hIgG Fc capture (AHC) biosensors and kinetics was measured to Ab0223 (LS2A humanized parent) in the presence of […].
# A series of biophysical experiments was conducted to further elucidate a mechanism for Indinavir switch assembly. Biolayer interferometry experiments were performed to measure LS2A and LS21B assembly in the presence and absence of saturating concentrations of Indinavir. […] A BLI kinetics assay was performed to assess the reversibility kinetics of the LS2A/LS2B complex upon Indinavir washout.
# as §1
# [4] = Differential scanning fluorimetry (DSF) melting temperature; assay type: physicochemical
# Experimental: DSF was performed on a LC480 Lightcycler Instrument II (Roche). Purified recombinant protein was diluted to 5 μM in DSF buffer (PBS, pH 7.4, Sypro Orange 5×) with small molecule (10 μM VTX) or vehicle (0.05% DMSO) and then heated with a temperature gradient (0.01° C./s) from 25 to 95° C. Data were continuously acquired at ˜465 nm (excitation) and ˜580 nm (emission). Data was analyzed to generate first derivative curves in which the curve maximum was reported as the melting temperature of the protein.
# [5] = SPR binding of free indinavir to LS2A clones; settings: read-out: Affinity to free Indinavir by SPR
# Experimental: Detailed methods are described in the methods section. […] A 3-fold serial dilution of indinavir was injected over sensor chip and binding was measured using single-cycle kinetics. The data was double reference subtracted and fit to a 1:1 Langmuir kinetic model.
# All assays were performed at 25° C. in 1×PBS-P+ buffer made from a 10× buffer stock (Cytiva 28995084). […] For Ab0759, a single-cycle kinetics experiment was performed with five sequential injections of 3-fold serial diluted (37, 111, 333, 1000, 3000 nM) indinavir at 30 μL/min for 240 seconds each and dissociation was monitored for 600 seconds. […] The data was double referenced subtracted to the reference lane and five sequential injections of 0 nM indinavir. The kinetic data was fit to a 1:1 Langmuir model to determine the association and dissociation rate constants.
molecule,measurement,setting,value
B1,binding to LS2A clones (FIG. 17),[1],weaker binding to LS2A R3M1 compared to LS2A R2M34
B2,binding to LS2A clones (FIG. 17),[1],improved affinities
B3,LITE Switch reversibility at constant Ab1073 and IDV,[2]; 50 nM Ab1073 and 1 μM IDV,no LITE Switch reversibility was observed
same,complex remaining after IDV washout,"[2]; 2 hours, 50 nM Ab1073 and vehicle",~0%
same,binding to LS2A clones (FIG. 17),[1],improved affinities
B4,Kd,"[3]; in the presence of 10 μM IDV, read-out: affinity for binding to Ab0902",1.6 nM
same,binding to Ab0902 in the absence of Indinavir,[3]; no indinavir,no binding was detected; also recorded: no detectable interaction
B5,TM (° C.),[4]; Table 15,78.3 °C
same,Kd,[1],8.6 nM
B6,TM (° C.),[4]; Table 15,77.7 °C
same,Kd,[1],40 nM
B7,TM (° C.),"[4]; scFv-Fc format, LS2A R3 (Table 20)",56.1 °C
same,Kd,[5],4.6 nM
